Reference: patent publication US20230183337A1 (UNIVERSIT D AIXMARSEILLE, published 2023)

Columns and labels:
[1] = target: T1, human Nectin-4 (cell surface nectin-4 on SUM190 tumor cells; nectin-4 in breast cancer tissues) (UniProt Q96NY8 32-510); assay: FACS
T1 chain: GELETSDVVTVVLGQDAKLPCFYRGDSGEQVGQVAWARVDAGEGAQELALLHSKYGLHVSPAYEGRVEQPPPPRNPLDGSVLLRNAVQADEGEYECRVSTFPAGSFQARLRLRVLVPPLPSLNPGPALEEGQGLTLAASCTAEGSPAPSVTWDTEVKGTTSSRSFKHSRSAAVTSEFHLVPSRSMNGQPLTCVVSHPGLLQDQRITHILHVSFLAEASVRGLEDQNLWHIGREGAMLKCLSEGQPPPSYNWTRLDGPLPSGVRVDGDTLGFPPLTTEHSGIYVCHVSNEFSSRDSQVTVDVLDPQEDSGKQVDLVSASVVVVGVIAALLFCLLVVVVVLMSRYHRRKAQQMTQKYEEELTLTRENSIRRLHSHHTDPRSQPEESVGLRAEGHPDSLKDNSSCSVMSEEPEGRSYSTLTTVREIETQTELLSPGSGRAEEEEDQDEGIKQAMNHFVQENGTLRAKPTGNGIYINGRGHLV

[2] = target: T2, human Nectin-4 (cell surface nectin-4 on SUM190 tumor cells; nectin-4 in breast cancer tissues) (human, UniProt Q96NY8 32-510); assay: FACS on SUM190 cells, serial dilutions of mAb
T2 construct: Endogenous nectin-4 of the human SUM190 breast cancer cell line (FACS) and of patient FFPE tumour tissue (IHC); also called PVRL4
T2 sequence: T1 chain

[3] = target: T3, Nectin-4 (SUM190 cells) (UniProt Q96NY8 32-510); assay: FACS
T3 chain: T1 chain

B1: murine monoclonal antibody 5A12.2 (hybridoma CNCM I-5407) (antibody, V domains shown)
VH: QIQLQQSGAELVKPGASVTLSCKTSGFTFNSMYISWLKQKPGQSLEWIAWIYAGTGGTRFNQKFTGKVQLTVDTSSSTAYMQFSSLTTDDSAIYYCAIRSGFVPMDYWGQGTSVTVSS
VL: SIVMTQTPKFLLVSAGDRVTITCKASQSVSNDVAWYQQKPGQSPKLLIYYASNRYTGVPDRFTGSGYGTDFTFTISTVQAEDLAVYFCQQDYSSPWTFGGGTKLEIK
notes: Whole murine monoclonal antibody from a hybridoma with a kappa light chain; also called mAb 5A12.2; 5A12.2 mAb
[1]
  EC50: 0.018 µg/mL
[2]
  binding result: binds

B2: N41 (antibody, V domains shown)
VH: QVQLKQSGPGLVQPSQSLSITCTVSGFSLTNYGVHWVRQSPGKGLEWLGVIWSGGSTDYNAAFISRLSISKDTSKSQVFFKMNSLQADDTAIYYCARELIHAMDNWGQGTSVTVSS
VL: DIQMTQSPASLSVSVGETVTITCRASENIYSNLAWYQQKQGNSPQLLVFAATNLADGVPSRFSGSGSGTQYSLKINSLQSEDFGTYYCQHFWGTPTFGGGTKLEIK
[3]
  EC50: 0.052 µg/mL

B3: 14A5 (antibody, V domains shown)
VH: EVLLQQSGPELVKPGASVKIPCKASGYTFTDYTMDWVKQSHGKSLEWIGDINPNNDVTMYNEKFKGRATLTVDKSSSTAYMEVRSLTSEDTAVYYCVRGRGFAYWGQGTLVTVSA
VL: DIVLTQSPASLIVSLGQRATISCRASQSVSTSSNSYMHWYQQKPGQPPKLLIRFASNLESGVPARFSGSGSGTYFTLNIHPVEEEDSATYYCQHSWEIPYTFGGGTKLEIK
[3]
  EC50: 0.034 µg/mL
